Laboratory results: patent US20210054097A1 (Novo Nordisk, published 2021)
Ends that are not written are not given here.

Columns and labels:
[1] = target: T1, FX activation peptide 12-mer KPYDAADLDPTE (human); assay: peptide ELISA
T1 peptide: KPYDAADLDPTE-biotin
Protocol: (§1) The peptides were C-terminally conjugated to biotin and 50 μL of 1 μg/mL peptide solution was used for immobilization in discrete wells of the microtiter plate which was pre-coated with 1 μg/mL streptavidin. Each well was washed with washing buffer (10 mM Tris, 150 mM NaCl, 2.5 mM CaCl₂, 0.05% Tween 20, pH 8.60) followed by addition of 50 μL of 2 μg/mL FLAG-tagged anti-FX Nanobody® or IgG antibody to be tested. After 1 hour non-bound Nanobody®/antibody was washed off using washing buffer.
(§2) Bound anti-FX activation peptide ligand was detected by first binding a HRP-labelled secondary antibody (for FLAG-tagged Nanobodies: Anti-FLAG mAb M2-Peroxidase (HRP) (Sigma Aldrich, US), for antibody: Fcγ Fragment Specific Peroxidase AffiniPure F(ab′)₂ Fragment Goat Anti-Human IgG (Jackson ImmunoResearch Laboratories, Inc., US), or Peroxidase AffiniPure Goat Anti-Mouse IgG (Jackson ImmunoResearch Laboratories, Inc., US)) for 1 hour, and then adding 100 μL TMB-1 ELISA substrate (Kem-En-Tec Diagnostics, Denmark).

[2] = target: T2, FX activation peptide 12-mer LDFNQTQPERGD (human); assay: peptide ELISA
T2 peptide: LDFNQTQPERGD-biotin
Protocol: as §1, §2

[3] = target: T3, FX activation peptide 12-mer AADLDPTENPFD (human); assay: peptide ELISA
T3 peptide: AADLDPTENPFD-biotin
Protocol: as §1, §2

[4] = target: T4, FX activation peptide 12-mer ADLDPTENPFDL (human); assay: peptide ELISA
T4 peptide: ADLDPTENPFDL-biotin
Protocol: as §1, §2

[5] = target: T5, FX activation peptide 12-mer AQATSSSGEAPD (human); assay: peptide ELISA
T5 peptide: AQATSSSGEAPD-biotin
Protocol: as §1, §2

[6] = target: T6, FX activation peptide 12-mer TQPERGDNNLTR (human); assay: peptide ELISA
T6 peptide: TQPERGDNNLTR-biotin
Protocol: as §1, §2

[7] = target: T7, FX activation peptide 12-mer QATSSSGEAPDS (human); assay: peptide ELISA
T7 peptide: QATSSSGEAPDS-biotin
Protocol: as §1, §2

[8] = target: T8, FX activation peptide 12-mer WKPYDAADLDPT (human); assay: peptide ELISA
T8 peptide: WKPYDAADLDPT-biotin
Protocol: as §1, §2

[9] = target: T9, FX activation peptide 12-mer SSSGEAPDSITW (human); assay: peptide ELISA
T9 peptide: SSSGEAPDSITW-biotin
Protocol: as §1, §2

[10] = target: T10, FX activation peptide 12-mer QTQPERGDNNLT (human); assay: peptide ELISA
T10 peptide: QTQPERGDNNLT-biotin
Protocol: as §1, §2

[11] = target: T11, human plasma-derived Factor X zymogen (human, UniProt P00742 41-179; P00742 183-488); assay: apparent KD fitted from FXa generation assay
T11 construct: Plasma-derived, bought (Haematologic Technologies); also called FX; human FX
Protocol: The ability of the monovalent anti-FX Nanobody® (Nb) to promote FIXa-mediated FX-activation was determined in the presence of a procoagulant phospholipid membrane according to the principles described by Scheiflinger et al. (2008) J Thromb Haemost, 6:315-322. A Fab of mAb 13F62 (IgG1 isotype, variable sequences identified by SEQ ID NO:6 and 7), also found to bind the activation peptide, were included for comparison. Moreover, anti-FX antibodies as disclosed in U.S. Pat. No. 9,334,331 (J327 and L404-k in said publication), corresponding to the anti-FX arm of ACE910); and more recently in WO2018/021450 (J327 D31H and JYL280 in said publication) and WO2018/098363 (BIIB-12-917 represented by SEQ ID NO:427 and 615 in said publication) are stated to be suitable for use as part of anti-FIX/anti-FX bispecific FVIII mimetic compounds were, furthermore, included for comparison.
Each compound was tested individually in a concentration range from 0-1000 nM, 0-2000 nM, 0-4000 nM or 0-8000 nM by pre-incubation with 1-1.5 nM human plasma-derived FIXa (Haematologic Technologies Inc, USA) and 500 μM 25:75 phosphatidyl serine:phosphatidyl choline phospholipid vesicles (Haematologic Technologies Inc, USA) in assay buffer (50 mM HEPES, 100 mM NaCl, 5 mM CaCl₂, 0.1% (w/v) PEG8000, 1 mg/mL bovine serum albumin, pH 7.3) for 10 minutes. The reaction was initiated by addition of human plasma-derived FX (Haematologic Technologies Inc, USA) to a final concentration of 100 nM and a reaction volume of 50 μL. Following 20 minutes activation at room temperature while agitated (1000 RPM), the reaction was quenched by addition of 25 μL quench buffer (50 mM HEPES, 100 mM NaCl, 60 mM EDTA, 0.1% (w/v) PEG8000, 1 mg/mL bovine serum albumin, pH 7.3). The amount of FXa generated was determined by addition of 25 μL 2 mM S-2765 chromogenic substrate for FXa (Chromogenix, Sweden) and chromogenic substrate conversion was followed by measuring absorbance at 405 nm for 10 minutes in a microplate reader. The observed change in 405 nm absorbance (ΔAbs405/min) was fitted to the quadratic binding equation (eq. 1) to obtain the peak stimulatory activity and EC50.

human activated Factor X = human activated Factor X (human, UniProt P00742 41-179; P00742 235-488); assay: cell-based or functional assay
[12] = target: T11, human plasma-derived Factor X zymogen; assay: cell-based or functional assay

T11 sequence (P00742 41-179, chain 1 of 2): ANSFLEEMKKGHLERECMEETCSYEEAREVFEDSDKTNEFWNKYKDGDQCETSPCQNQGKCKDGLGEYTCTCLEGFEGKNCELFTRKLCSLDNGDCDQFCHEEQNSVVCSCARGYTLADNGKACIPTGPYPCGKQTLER
T11 sequence (P00742 183-488, chain 2 of 2): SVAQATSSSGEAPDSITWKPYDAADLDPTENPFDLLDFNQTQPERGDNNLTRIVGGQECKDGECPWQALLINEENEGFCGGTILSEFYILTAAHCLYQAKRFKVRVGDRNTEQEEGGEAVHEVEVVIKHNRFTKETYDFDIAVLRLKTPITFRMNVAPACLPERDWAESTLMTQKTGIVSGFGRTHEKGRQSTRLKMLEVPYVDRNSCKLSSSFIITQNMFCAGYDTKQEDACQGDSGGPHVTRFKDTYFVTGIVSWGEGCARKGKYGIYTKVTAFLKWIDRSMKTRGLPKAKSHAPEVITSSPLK
human activated Factor X, sequence (P00742 41-179, chain 1 of 2): as the sequence (P00742 41-179, chain 1 of 2) above
human activated Factor X, sequence (P00742 235-488, chain 2 of 2): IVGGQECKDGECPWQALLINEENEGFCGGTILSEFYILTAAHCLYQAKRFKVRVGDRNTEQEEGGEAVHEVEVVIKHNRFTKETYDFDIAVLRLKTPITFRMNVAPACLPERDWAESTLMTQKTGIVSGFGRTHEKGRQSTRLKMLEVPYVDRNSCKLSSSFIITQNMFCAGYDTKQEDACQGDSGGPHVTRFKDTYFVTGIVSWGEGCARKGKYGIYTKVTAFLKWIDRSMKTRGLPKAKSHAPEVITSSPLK

- ELISA signal relative to background [1]: 1.89
- ELISA signal relative to background [2]: 2.21
- ELISA signal relative to background [3]: 2.22
- ELISA signal relative to background [4]: 2.34
- ELISA signal relative to background [5]: 1.92
- ELISA signal relative to background [6]: 1.97
- ELISA signal relative to background [7]: 1.97
- ELISA signal relative to background [8]: 1.83
- ELISA signal relative to background [9]: 1.99
- Kd [11]: ~1700 nM
- FXa amidolytic activity (relative to free FXa, fold) (human activated Factor X): 1.07 fold
- Increase in FX activation (fold) [12]: > 25 fold
B1: Nb 721E08 (VHH)
VHH: EVQLVESGGGVVQPGGSLRLSCAASGRTFSTYSMGWFRQAPGKEREFVAAITRRGSRTYYADSVKGRFTISRDNSKNTVYLQMNSLRPEDTALYYCAADRRPADSYLDYWGQGTLVTVSS
notes: monovalent Nanobody; not shown: C-terminal FLAG3 and HIS6 tag
- ELISA signal relative to background [10]: 1.96
